# T1: human C5aR_NT-bio peptide (human, biotin tag (position not given))
# T1 construct: Chemically synthesized linear peptide (Genscript); also called human C5aR N-terminal peptide; human C5aR peptide
# T1 peptide: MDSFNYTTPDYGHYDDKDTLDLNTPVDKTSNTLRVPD
# T2: cynomolgus C5aR_NT-bio peptide (cynomolgus monkey, biotin tag (position not given))
# T2 construct: Chemically synthesized linear peptide (Genscript); also called cynomolgus C5aR N-terminal peptide; cynomolgus C5aR peptide
# T2 peptide: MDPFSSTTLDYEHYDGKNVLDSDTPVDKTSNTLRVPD
# T3: C5aR expressed on purified cynomolgus neutrophils (cynomolgus monkey (Macaca fascicularis))
# T3 construct: Endogenous receptor on neutrophils from whole blood of three animals; also called cynomolgus C5aR expressed endogenously
# T3 chain: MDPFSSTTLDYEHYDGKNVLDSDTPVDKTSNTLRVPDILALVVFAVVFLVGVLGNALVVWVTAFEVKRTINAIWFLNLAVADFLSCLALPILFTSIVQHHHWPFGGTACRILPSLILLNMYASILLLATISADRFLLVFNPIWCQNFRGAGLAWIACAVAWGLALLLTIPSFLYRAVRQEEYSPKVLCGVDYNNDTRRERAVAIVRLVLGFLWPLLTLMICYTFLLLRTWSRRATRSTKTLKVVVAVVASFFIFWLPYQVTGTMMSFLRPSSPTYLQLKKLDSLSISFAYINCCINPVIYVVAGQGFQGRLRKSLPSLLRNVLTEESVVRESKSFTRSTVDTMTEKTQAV
# B1: MAB #2 (antibody, human IgG1, lambda)
# heavy: EVQLVESGGGLVKPGGSLRLSCAASGFTFSSYAMHWVRQAPGKGLEWVGRIKSVAQGGTTDYAAHVKGRFTISRDDSKNTLYLQMNSLKTEDTAVYYCARVSHSTFDVWGQGTLVTVSSASTKGPSVFPLAPSSKSTSGGTAALGCLVKDYFPEPVTVSWNSGALTSGVHTFPAVLQSSGLYSLSSVVTVPSSSLGTQTYICNVNHKPSNTKVDKRVEPKSCDKTHTCPPCPAPEAEGAPSVFLFPPKPKDTLMISRTPEVTCVVVDVSHEDPEVKFNWYVDGVEVHNAKTKPREEQYNSTYRVVSVLTVLHQDWLNGKEYKCKVSNKALPSSIEKTISKAKGQPREPQVYTLPPSREEMTKNQVSLTCLVKGFYPSDIAVEWESNGQPENNYKTTPPVLDSDGSFFLYSKLTVDKSRWQQGNVFSCSVMHEALHNHYTQKSLSLSPGK
# light: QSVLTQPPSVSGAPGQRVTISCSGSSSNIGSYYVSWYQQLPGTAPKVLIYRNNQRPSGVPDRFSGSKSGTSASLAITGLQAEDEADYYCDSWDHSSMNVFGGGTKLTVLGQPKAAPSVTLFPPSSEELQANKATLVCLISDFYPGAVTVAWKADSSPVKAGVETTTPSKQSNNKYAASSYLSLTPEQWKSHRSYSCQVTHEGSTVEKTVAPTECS
# notes: lambda 1 light chain
# B2: MAB #1 (antibody, human IgG1, lambda)
# heavy: EVQLVESGGGLVKPGGSLRLSCAASGFTFSSYAMHWVRQAPGKGLEWVGRIKSKAQGGTTDYAAHVKGRFTISRDDSKNTLYLQMNSLKTEDTAVYYCARVSFSTFDVWGQGTLVTVSSASTKGPSVFPLAPSSKSTSGGTAALGCLVKDYFPEPVTVSWNSGALTSGVHTFPAVLQSSGLYSLSSVVTVPSSSLGTQTYICNVNHKPSNTKVDKRVEPKSCDKTHTCPPCPAPEAEGAPSVFLFPPKPKDTLMISRTPEVTCVVVDVSHEDPEVKFNWYVDGVEVHNAKTKPREEQYNSTYRVVSVLTVLHQDWLNGKEYKCKVSNKALPSSIEKTISKAKGQPREPQVYTLPPSREEMTKNQVSLTCLVKGFYPSDIAVEWESNGQPENNYKTTPPVLDSDGSFFLYSKLTVDKSRWQQGNVFSCSVMHEALHNHYTQKSLSLSPGK
# light: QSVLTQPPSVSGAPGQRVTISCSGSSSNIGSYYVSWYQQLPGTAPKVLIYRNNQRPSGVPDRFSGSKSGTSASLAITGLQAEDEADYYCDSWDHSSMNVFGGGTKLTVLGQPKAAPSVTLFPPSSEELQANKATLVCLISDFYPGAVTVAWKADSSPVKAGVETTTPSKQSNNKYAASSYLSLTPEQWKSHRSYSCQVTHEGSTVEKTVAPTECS
# notes: lambda 1 light chain, VH3-15 framework
# Legend:
# [1] = molecular target: T4, Serum albumin (h) (human); assay: Protein Panel Profiling (3P), MSD ECL, coated antigen, IgG 100 nM
# T4 construct: '(h)' on the sheet read as human
# T4 sequence (P02768 25-609): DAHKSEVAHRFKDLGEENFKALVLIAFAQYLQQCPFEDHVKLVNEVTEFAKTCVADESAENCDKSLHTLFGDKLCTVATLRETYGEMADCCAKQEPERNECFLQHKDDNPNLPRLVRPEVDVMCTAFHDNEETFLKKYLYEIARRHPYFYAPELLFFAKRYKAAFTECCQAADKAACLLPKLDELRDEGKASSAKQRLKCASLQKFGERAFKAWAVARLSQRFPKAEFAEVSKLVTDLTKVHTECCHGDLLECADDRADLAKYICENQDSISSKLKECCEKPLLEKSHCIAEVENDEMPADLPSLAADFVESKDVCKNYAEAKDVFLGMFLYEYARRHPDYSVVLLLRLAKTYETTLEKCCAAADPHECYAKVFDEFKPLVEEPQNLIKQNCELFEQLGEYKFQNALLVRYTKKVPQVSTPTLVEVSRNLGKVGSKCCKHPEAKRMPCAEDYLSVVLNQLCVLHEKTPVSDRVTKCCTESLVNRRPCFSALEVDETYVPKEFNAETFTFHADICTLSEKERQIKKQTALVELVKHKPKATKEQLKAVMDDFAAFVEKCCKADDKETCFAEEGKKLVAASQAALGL
# Description: (§1) 32 different proteins and controls were coated on two 384-well MSD standard plates at a concentration of 1.0 μg/mL at 4° C. over night. The coating solution was discarded and plates were blocked with 50 μL 3% (w/v) BSA in PBS for one hour at RT on a microtiter plate shaker (˜500 rpm) followed by three washing steps with 50 μL washing buffer (PBS with 0.05% (v/v) Tween 20). IgG samples were diluted to 100 nM and 10 nM in assay buffer (PBS with 0.5% (w/v) BSA, 0.05% (v/v) Tween 20). As controls, isotype control antibody MOR03207 (IgG1f_AEASS) and assay buffer were used. Samples and controls were added at 30 μL/well and incubated for three hours at RT on a microtiter plate shaker. The plates were washed three times and 30 μL detection antibody (ECL-labeled anti-human Fab) were added per well and incubated for one hour on a microtiter plate shaker (˜500 rpm). After washing the MSD plate and adding 35 μL/well MSD Read Buffer T with surfactant, electro-chemiluminescence signals were detected using a SECTOR® Imager S600 instrument (Meso Scale Diagnostics).
# (§2) For evaluation, binding signals of the antibody sample to a certain protein were divided by the respective binding signals of the reference antibody MOR03207 resulting in a binding ratio (BR). The cumulative binding ratio (CBR) of all proteins except the controls (25 in total) was then calculated: CBR up to 150 indicates an IgG without detectable unspecific binding. Values above 150 indicates an IgG with increased unspecific binding compared to the reference antibody MOR03207.
# [2] = molecular target: Trypsinogen; assay: as above
# Description: as §1, §2
# [3] = molecular target: T5, Cell surface rec. 2_Fc (h); assay: as above
# T5 construct: identity not disclosed
# Description: as §1, §2
# [4] = molecular target: RNase A; assay: as above
# RNase A, sequence (P61823 27-150): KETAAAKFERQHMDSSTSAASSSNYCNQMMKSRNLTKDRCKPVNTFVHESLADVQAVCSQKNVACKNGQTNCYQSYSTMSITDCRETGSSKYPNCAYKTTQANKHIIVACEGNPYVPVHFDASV
# Description: as §1, §2
# [5] = molecular target: Cytochrome C; assay: as above
# Description: as §1, §2
# [6] = molecular target: Antitrypsin; assay: as above
# Description: as §1, §2
# [7] = molecular target: Amyloglycosidase; assay: as above
# Description: as §1, §2
# [8] = molecular target: T6, Fc (h); assay: as above
# T6 construct: '(h)' on the sheet read as human
# Description: as §1, §2
# [9] = molecular target: Lectin; assay: as above
# Description: as §1, §2
# [10] = molecular target: Pepsinogen; assay: as above
# Description: as §1, §2
# [11] = molecular target: T7, Hemoglobin (h) (human); assay: as above
# T7 construct: '(h)' on the sheet read as human
# T7 sequence (P69905 2-142, chain 1 of 2): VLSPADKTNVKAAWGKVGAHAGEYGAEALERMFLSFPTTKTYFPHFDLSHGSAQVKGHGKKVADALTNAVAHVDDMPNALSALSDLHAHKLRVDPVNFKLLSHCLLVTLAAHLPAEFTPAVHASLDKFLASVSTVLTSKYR
# T7 sequence (P68871 2-147, chain 2 of 2, further chain): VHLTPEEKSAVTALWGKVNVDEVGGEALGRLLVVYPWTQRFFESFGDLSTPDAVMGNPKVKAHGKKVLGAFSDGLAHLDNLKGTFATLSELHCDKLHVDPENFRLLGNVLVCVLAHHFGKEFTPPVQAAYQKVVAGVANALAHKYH
# Description: as §1, §2
# [12] = molecular target: GFP; assay: as above
# Description: as §1, §2
# [13] = molecular target: bovine transferrin (bovine, UniProt Q29443 20-704); assay: as above
# bovine transferrin, sequence (Q29443 20-704 limits assumed): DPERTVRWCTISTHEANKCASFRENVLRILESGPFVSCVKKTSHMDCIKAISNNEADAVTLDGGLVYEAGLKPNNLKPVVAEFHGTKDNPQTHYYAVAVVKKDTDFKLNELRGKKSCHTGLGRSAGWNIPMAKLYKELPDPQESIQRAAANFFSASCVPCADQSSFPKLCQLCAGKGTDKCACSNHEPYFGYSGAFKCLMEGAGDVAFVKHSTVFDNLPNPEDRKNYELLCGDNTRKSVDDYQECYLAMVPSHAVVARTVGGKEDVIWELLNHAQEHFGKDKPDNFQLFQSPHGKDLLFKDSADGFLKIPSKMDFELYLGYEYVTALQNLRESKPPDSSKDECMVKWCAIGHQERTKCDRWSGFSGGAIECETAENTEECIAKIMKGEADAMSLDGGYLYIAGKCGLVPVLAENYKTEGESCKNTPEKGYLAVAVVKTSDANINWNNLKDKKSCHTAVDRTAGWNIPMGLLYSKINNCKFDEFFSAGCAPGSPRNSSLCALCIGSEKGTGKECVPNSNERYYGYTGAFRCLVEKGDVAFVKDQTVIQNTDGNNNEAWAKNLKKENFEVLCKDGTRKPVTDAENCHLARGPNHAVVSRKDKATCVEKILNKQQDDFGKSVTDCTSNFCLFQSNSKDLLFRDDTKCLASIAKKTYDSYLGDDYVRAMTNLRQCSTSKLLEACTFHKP
# Description: as §1, §2
# [14] = molecular target: T8, Protein A; assay: as above
# T8 construct: control of the 3P panel
# Description: as §1, §2
# [15] = molecular target: Myoglobin; assay: as above
# Description: as §1, §2
# [16] = molecular target: Lysozyme; assay: as above
# Lysozyme, sequence (P00698 19-147): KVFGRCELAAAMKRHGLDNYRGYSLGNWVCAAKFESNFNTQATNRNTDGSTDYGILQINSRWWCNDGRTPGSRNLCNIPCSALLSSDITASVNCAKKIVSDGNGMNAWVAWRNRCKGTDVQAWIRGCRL
# Description: as §1, §2
# [17] = molecular target: Trypsin inhibitor; assay: as above
# Description: as §1, §2
# [18] = molecular target: T9, anti-human Fc; assay: as above
# T9 construct: control of the 3P panel; it captures human IgG as such, so a ratio of 1 means a signal equal to that of MOR03207
# Description: as §1, §2
# [19] = molecular target: RNase B; assay: as above
# RNase B, sequence (P61823 27-150): as the sequence (P61823 27-150) above
# Description: as §1, §2
# [20] = molecular target: T10, Cell surface rec. 1_Lys (h); assay: as above
# T10 construct: identity not disclosed
# Description: as §1, §2
# [21] = molecular target: Fibrinogen (b) (bovine); assay: as above
# Fibrinogen (b) (bovine), sequence (P02672 20-615, chain 1 of 3): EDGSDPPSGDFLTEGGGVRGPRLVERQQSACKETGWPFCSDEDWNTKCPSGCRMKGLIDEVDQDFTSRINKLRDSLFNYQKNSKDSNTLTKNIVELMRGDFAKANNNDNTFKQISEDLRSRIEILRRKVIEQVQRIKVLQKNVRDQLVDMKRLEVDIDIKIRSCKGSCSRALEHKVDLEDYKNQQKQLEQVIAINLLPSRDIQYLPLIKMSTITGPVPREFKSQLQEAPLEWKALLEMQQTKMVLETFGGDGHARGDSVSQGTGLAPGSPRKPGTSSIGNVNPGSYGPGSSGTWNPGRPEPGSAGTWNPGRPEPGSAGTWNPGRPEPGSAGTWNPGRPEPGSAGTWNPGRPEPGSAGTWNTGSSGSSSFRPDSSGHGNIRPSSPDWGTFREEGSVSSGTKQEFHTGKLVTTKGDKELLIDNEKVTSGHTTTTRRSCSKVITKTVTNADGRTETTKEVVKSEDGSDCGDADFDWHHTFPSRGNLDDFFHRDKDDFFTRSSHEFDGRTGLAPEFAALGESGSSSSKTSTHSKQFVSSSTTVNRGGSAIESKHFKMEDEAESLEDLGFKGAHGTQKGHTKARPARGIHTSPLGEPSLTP
# Fibrinogen (b) (bovine), sequence (P02676 whole entry, chain 2 of 3, further chain): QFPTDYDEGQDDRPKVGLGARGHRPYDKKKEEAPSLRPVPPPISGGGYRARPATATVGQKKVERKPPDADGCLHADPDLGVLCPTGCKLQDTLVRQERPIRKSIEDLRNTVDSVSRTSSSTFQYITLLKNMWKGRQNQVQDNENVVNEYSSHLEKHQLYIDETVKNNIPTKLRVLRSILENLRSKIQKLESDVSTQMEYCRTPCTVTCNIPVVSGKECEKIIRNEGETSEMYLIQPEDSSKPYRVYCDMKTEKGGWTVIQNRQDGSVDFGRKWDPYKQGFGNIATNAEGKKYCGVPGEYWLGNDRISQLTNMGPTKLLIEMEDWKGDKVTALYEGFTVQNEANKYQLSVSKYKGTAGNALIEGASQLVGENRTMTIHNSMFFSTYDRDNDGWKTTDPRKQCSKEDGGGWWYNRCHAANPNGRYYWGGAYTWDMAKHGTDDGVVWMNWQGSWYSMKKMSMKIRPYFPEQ
# Fibrinogen (b) (bovine), sequence (P12799 25-444, chain 3 of 3, further chain): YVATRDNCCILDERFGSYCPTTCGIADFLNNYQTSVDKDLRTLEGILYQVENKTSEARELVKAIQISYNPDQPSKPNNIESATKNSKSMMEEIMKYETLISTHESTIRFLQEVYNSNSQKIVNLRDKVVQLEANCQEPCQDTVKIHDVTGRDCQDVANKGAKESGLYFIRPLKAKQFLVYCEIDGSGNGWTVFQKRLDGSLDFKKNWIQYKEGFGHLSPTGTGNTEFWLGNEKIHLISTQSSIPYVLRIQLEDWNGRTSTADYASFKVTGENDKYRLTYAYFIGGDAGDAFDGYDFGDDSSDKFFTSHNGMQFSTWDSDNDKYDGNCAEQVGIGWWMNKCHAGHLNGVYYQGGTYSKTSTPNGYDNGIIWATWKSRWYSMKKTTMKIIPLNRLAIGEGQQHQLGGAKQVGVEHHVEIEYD
# Description: as §1, §2
# [22] = molecular target: T11, Cell surface rec. 3_Fc (h); assay: as above
# T11 construct: identity not disclosed
# Description: as §1, §2
# [23] = molecular target: T1, human C5aR_NT-bio peptide; assay: as above
# Description: as §1, §2
# [24] = molecular target: T12, anti-human Fab (Dianova); assay: as above
# T12 construct: control of the 3P panel; it captures human IgG as such, so a ratio of 1 means a signal equal to that of MOR03207
# Description: as §1, §2
# [25] = molecular target: Ovalbumin; assay: as above
# Ovalbumin, sequence (P01012 2-386): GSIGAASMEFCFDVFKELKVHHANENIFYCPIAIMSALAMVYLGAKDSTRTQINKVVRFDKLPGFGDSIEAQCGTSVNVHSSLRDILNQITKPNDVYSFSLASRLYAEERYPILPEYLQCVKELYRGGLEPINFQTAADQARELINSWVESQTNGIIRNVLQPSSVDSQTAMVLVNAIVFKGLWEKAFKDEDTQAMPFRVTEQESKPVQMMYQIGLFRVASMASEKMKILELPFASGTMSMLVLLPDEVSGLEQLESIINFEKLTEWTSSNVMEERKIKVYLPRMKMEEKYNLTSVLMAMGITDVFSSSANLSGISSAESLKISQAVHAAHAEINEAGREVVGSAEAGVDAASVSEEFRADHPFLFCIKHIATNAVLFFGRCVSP
# Description: as §1, §2
# [26] = molecular target: T2, cynomolgus C5aR_NT-bio peptide; assay: BLI (Octet), apparent (bivalent)
# [27] = molecular target: T3, C5aR expressed on purified cynomolgus …; assay: FACS on purified cynomolgus neutrophils, IgG titration
# Description: Neutrophils were purified from EDTA-whole blood samples using a MACSexpress® Neutrophil Isolation Cocktail from Miltenyi Biotec. Briefly, using this kit, cells are isolated using magnetic labeling and negative magnetic separation. […] Measurements were done at the FACS Array device. FACS data were evaluated using FlowJo™, entered into GraphPad® Prism (v4.0) and fitted to the sigmoidal dose-response curve using non-linear regression to calculate the EC50.
# [28] = molecular target: T13, Cynomolgus FcRn p51 [1-297]_AviHis/p14 biotinylated (cynomolgus monkey, UniProt Q8SPV9 24-298; Q6T672 21-119, biotinylated in vitro with BirA (Avi tag)); assay: BLI (Octet HTX), biotinylated FcRn on SA sensors, IgG titrated, steady state fit, apparent KD, pH 7.2; ** slight binding at pH 7.2
# T13 construct: Heterodimer; UniProt Q8SPV9 (p51)
# T13 sequence (Q8SPV9 other isoform, or with tags, fused parts or gaps limits assumed, chain 1 of 2): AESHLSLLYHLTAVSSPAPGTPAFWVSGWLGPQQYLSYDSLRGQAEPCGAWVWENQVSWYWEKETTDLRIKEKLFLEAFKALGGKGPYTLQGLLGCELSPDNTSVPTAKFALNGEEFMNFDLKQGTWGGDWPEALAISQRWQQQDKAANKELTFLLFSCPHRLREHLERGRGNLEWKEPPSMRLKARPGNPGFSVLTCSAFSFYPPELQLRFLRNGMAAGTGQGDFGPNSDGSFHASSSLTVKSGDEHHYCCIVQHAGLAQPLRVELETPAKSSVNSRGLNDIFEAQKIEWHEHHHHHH
# T13 sequence (Q6T672 21-119 limits assumed, chain 2 of 2): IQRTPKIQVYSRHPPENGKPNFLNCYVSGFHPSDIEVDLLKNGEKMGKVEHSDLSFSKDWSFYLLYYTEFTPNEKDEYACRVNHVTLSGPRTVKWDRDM
# Excerpt: 0.5 nm of biotinylated human, cynomolgus, mouse and rat FcRn were captured on streptavidin (SA) sensors (FortéBIO, Pall Life Sciences). […] All sensorgrams were fitted using Data Analysis Software 10.0 (FortéBIO, Pall Life Sciences) to determine the apparent affinity and the data was fitted with a steady state model.
Binder,binding ratio (signal / signal of MOR03207) [1],binding ratio (signal / signal of MOR03207) [2],binding ratio (signal / signal of MOR03207) [3],binding ratio (signal / signal of MOR03207) [4],binding ratio (signal / signal of MOR03207) [5],binding ratio (signal / signal of MOR03207) [6],binding ratio (signal / signal of MOR03207) [7],binding ratio (signal / signal of MOR03207) [8],binding ratio (signal / signal of MOR03207) [9],binding ratio (signal / signal of MOR03207) [10],binding ratio (signal / signal of MOR03207) [11],binding ratio (signal / signal of MOR03207) [12],binding ratio (signal / signal of MOR03207) [13],binding ratio (signal / signal of MOR03207) [14],binding ratio (signal / signal of MOR03207) [15],binding ratio (signal / signal of MOR03207) [16],binding ratio (signal / signal of MOR03207) [17],binding ratio (signal / signal of MOR03207) [18],binding ratio (signal / signal of MOR03207) [19],binding ratio (signal / signal of MOR03207) [20],other results
B1,2,2,2,6,2,2,2,3,2,5,2,2,9,1,2,2,7,1,2,2,binding ratio (signal / signal of MOR03207) [21]: 2; binding ratio (signal / signal of MOR03207) [22]: 2; binding ratio (signal / signal of MOR03207) [23]: 49; binding ratio (signal / signal of MOR03207) [24]: 1; binding ratio (signal / signal of MOR03207) [25]: 4; fold weaker binding than to the human C5aR peptide [26]: ~1000 fold; EC50 [27]: 3.8 nM
B2,2,2,2,4,2,2,3,2,2,4,2,2,19,1,2,2,5,1,2,2,binding ratio (signal / signal of MOR03207) [21]: 2; binding ratio (signal / signal of MOR03207) [22]: 2; binding ratio (signal / signal of MOR03207) [23]: 84; binding ratio (signal / signal of MOR03207) [24]: 1; binding ratio (signal / signal of MOR03207) [25]: 2; fold weaker binding than to the human C5aR peptide [26]: ~1000 fold; EC50 [27]: 4.5 nM; Kd [28]: 560 nM
